The results in this text go back to patent publication US20260258115A1 (MAPP BIOPHARMACEUTICAL, published 2026).

What all share (experiment): BLI, IgG
The target in assay [1] is RSV prefusion F (preF), subtype A (respiratory syncytial virus, subtype A, UniProt P03420 26-513).
In assay [2] the target is T1, RSV postfusion F (postF), subtype A (respiratory syncytial virus, subtype A, UniProt P03420 26-513).
T1 construct: also called F ΔFP; Postfusion subtype A

In assay [3] the target is RSV prefusion F (preF), subtype B (respiratory syncytial virus, subtype B).
Assay [4] deals with T2, RSV postfusion F (postF), subtype B (respiratory syncytial virus, subtype B).
T2 construct: also called F ΔFP; Postfusion subtype B

B1: ADI-14594 (antibody, V domains shown)
VH: QVQLVQSGAEVKKPGASVKLSCKASGYTFTTYTINWVRQAPGQGLEWMGWISGYNGNTDYAQKLQGRFTMTTDTSTNTAYMELRSLTSDDTAVYYCAKGGGGSESYFDYWGQGTLVTVSS
VL: SYELTQPPSVSVAPGKTARISCGGNNIGSKSVHWYQQKPGQAPVLVIYYDRDRPSGIPERFSGSNSGNTATLTISRVEAGDEADYYCQLWDRSSDHPYVFGTGTKVTVL
Turning to B1, the binding result in assay [1] was “no binding”. In addition, the Kd in assay [2] was 0.257 nM; in assay [3] it was 18.2 nM; in assay [4] it was 0.214 nM.

B2: ADI-20968 (antibody, V domains shown)
VH: QVQLQQWGAGLLKPSETLSLTCAMYGGSFSDDYWSWIRQPPGKGLEWIGEVNHGGSTNYNTSLKSRVTISADTSKKQFSLKLRSVTAADTAVYFCARGWRYCNATTCYSKAFDIWGQGTMVTVSS
VL: DIQMTQSPSSLSASVGDRVTITCQASQDIDIYLIWYQQKPGRAPKLLIYDASNLKTGVPSRFSGSGSGTEFTFTINNLQPEDFATYYCQQFHDLPLTFGGGTKLEIK
For the molecule B2, the Kd was found to be 0.135 nM in assay [1], 0.157 nM in assay [2], 0.127 nM in assay [3] and 0.15 nM in assay [4].

B3: ADI-20972 (antibody, V domains shown)
VH: QVQLQQWGAGLLRPSETLSLTCAVSGGSFSGHYWSWIRQPPGKGLEWIGGINHSGNTNYSPSLRSRVTMSVDTSRNQFSLMLRSVTAADTAVYFCARNVPNLYGDYPRWFDPWGQGTLVTVSS
VL: QSVLTQPASVSGSPGQSITISCTGTSSDVGGFNYVSWYQHHPGKAPKLMIYDVNNRPSGASNRFSGSKSGNTASLTISGLQAEDEADYYCSSYRSSDTLYVFGTGTKVTVL
B3: the Kd in assay [1] turned out to be 0.888 nM; in assay [2], 0.401 nM; in assay [3], 6.06 nM; in assay [4], 3.48 nM.

B4: ADI-20960 (antibody, V domains shown)
VH: QVQLQQWGAGVLKPSETLSLTCAVNGRSLSGHYWSWIRQTPGKGLEWIGEINNSGGTHYSPSLKSRVIISGDTAKNQLSLKLSSVTAADTAVYYCAKGSAEWYFDLWGRGTLVTVSS
VL: DIRVTQSPSTLSASVGDRVTITCRASQSVSTWLAWYQQKPGKPPSLLIFKASTLESGVPSRFSGSGSGTEFTLTISSLQPDDFATYYCQQYNTYSPWTFGPGTKVEIK
Turning to B4, the Kd stood at 0.22 nM in assay [1], 0.163 nM in assay [2], 0.23 nM in assay [3] and 0.163 nM in assay [4].

B5: ADI-20963 (antibody, V domains shown)
VH: EVQLVESGGGLAKPGGSLRLSCAASGFTFSHYNMNWVRQAPGKGLEWVSSISSTGFHIYYADSVKGRFVISRDNAENSLHLQMNSLRADDTGLYYCVRAEYYYGSGSAGHYFDSWGQGTLVTVSS
VL: SYVLTQPPSVSVAPGHTAKITCGGSIIGTKSVHWYQQKPGQAPVLVVYDDSDRPSGIPERLSGSRSGNTATLTITRVEAGDEADYYCQVWDSSSEHAGVFGGGTKLTVL
B5: the dissociation constant (Kd) in assay [1] amounted to 0.791 nM; in assay [2] it was 0.0909 nM; in assay [3], 3.14 nM; in assay [4], 0.614 nM.

B6: ADI-14592 (antibody, V domains shown)
VH: QVQLVQSGAEVKKPGESLKISCKGSGYTFTNYWIGWVRQMPGKGLEWMGIIYPDDSDTRYSPSFQGQVTISVDKSINTAYLQWSSLRASDTAIYYCACSNWPHYFDSWGQGTLVTVSS
VL: NFMLTQPHSVSESPGKTVTISCTRSSGNIAGNYVQWYQQRPGSAPTTVIYEDNQRPSGVPDRFSGSIDSSSNSASLTISGLKTEDEAVYYCQSYHPGNWVFGGGTKLTVL
As for B6, the Kd in assay [1] came to 2.4 nM; in assay [2], 0.136 nM; in assay [3], 0.301 nM; in assay [4] it was 0.0932 nM.

B7: ADI-14593 (antibody, V domains shown)
VH: QVQLVQSGAEVKKPGESLKISCKGSGYSFSSYWVAWVRQMPGKGLEWMGIIYPADSDTRYSPSFQGQVTISADKSDSTAYLQWGSLKASDTAMYYCARSLYGSGDYFDYWGQGTLVTVSS
VL: NFMLTQPHSVSESPGRTVIISCTRSSGSIATNYVQWYQQRPGSAPTTVIYEDNQRPSGVPDRFSGSIDSSSNSASLTISGLKTEDEADYYCQSYGSGDVVFGGGTKVTVL
B7: the Kd in assay [1] was determined as 2.33 nM; in assay [2], 0.161 nM; in assay [3], 0.358 nM; in assay [4] it was 0.108 nM.

B8: ADI-14599 (antibody, V domains shown)
VH: EVQLVESGGGLVQPGRSLRLSCKTSGFTFGDYAMSWVRQAPGQGLDWVGFIRTKAYGGTTEYAASVKGRFTLSRDDSKSIAYLQMNSLKTEDTAVYYCKSGGQFDYWGRGTLVTVSS
VL: NFMLTQPHSVSGSPGKTVTISCTGSSGSIASNYVQWYQQRPGSAPTTVICEDNQRPSGVPDRFSGSIDSSSNSASLTISGLKTEDEADYYCQSYDRSNQEVFGGGTKLTVL
B8: the Kd worked out at 0.102 nM in assay [1], 0.636 nM in assay [2], 0.622 nM in assay [3] and 0.358 nM in assay [4].

B9: ADI-20975 (antibody, V domains shown)
VH: QVQLVESGTHVKKPGASVKVSCEASDDTFNNKGIVWVRQAPGQGLEWMGWIRPNNGNTKYAQKFQGRVTMTTDASTNTAYMELRSLRSGDTAVYYCAREQFKWNDFYFDYWGQGILVTVSS
VL: SYELMQPPSVSVAPGQTATITCGGSNIGSETVHWYQQKPGQAPVLVVHDDTDRPSGIPERFSGSNSGNTATLTISGVEAGDEADFYCQVRDSRTDDVVFGGGTKLTVL
B9: the Kd in assay [1] was 0.092 nM; in assay [2], 0.146 nM; in assay [3], 0.0958 nM; in assay [4], 0.129 nM.

B10: ADI-20967 (antibody, V domains shown)
VH: EVQLLESGGGVVQPGRSVRLSCAASGFSFSSYALHWVRQAPGKGLEWVGVIWYEESNKYYADPVKGRFTISRDNSKNTLYLQMNSLRDEDTAVYYCARKGVATAGLDYWGQGTLVTVSS
VL: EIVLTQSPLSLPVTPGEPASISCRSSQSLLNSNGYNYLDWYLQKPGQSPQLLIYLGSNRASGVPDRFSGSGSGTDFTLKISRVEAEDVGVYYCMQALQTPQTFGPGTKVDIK
notes: also called Ab 220
In the case of B10, the Kd in assay [1] was 2.23 nM; in assay [2], 0.257 nM; in assay [3], 4.08 nM; in assay [4], 3.45 nM.

B11: ADI-14595 (antibody, V domains shown)
VH: EVQLLESGGGLVQPGGSLRLSCAASGFTFSIYSMNWVRQAPGKGLEWISYISRSGSTIFYADSVKGRFTISRDDAKNSLFLQMTSLRDADTAVYYCARVDCSNNKCYDYWGQGTLVTVSS
VL: DIQLTQSPATLSLSPGERATLSCRASQSISSFLAWYQQKPGQAPRLLIYDASKRATGTPARFSGGGSGRDFTLTISSLEPEDFAVYYCQQRSSWPLYTFGQGTKVEIK
Regarding B11, the Kd turned out to be 2.19 nM in assay [1], 1.3 nM in assay [2], 16 nM in assay [3] and 14.4 nM in assay [4].

B12: ADI-14590 (antibody, V domains shown)
VH: EVQLVESGAEVKKPGESLKISCKGSGYSFATYWIGWVRQMPGKGLEWMGIIYPGDSDTRYSPSFQGQVTISADKSISTAYLQWSSLKASDTAIYYCARAKLPVAGLYYFDYWGQGTLVTVSS
VL: DIQLTQSPSSLSASVGDRVTITCRASQGISSTLAWYQQKPGKAPKLLIYDASSLESGVPSRFSGSGSGTDFTLTISSLHPEDFATYYCQQFNTYPTFGGGTKVEIK
With B12, the Kd stood at 13.2 nM in assay [1], 2.68 nM in assay [2], 5.99 nM in assay [3] and 0.967 nM in assay [4].

B13: ADI-14607 (antibody, V domains shown)
VH: EVQLLESGGGVVQSGRSLRLSCAASGFTFNNYAMHWVRQAPGKGLEWVAVISFDGGNKFYGDSVQGRFTISRDNSKNTLYLQTNSLRPEDTAVYYCARDRWEIQIGLDIWGQGTTVTVSS
VL: SYVLTQPPSVSVSPGQTARITCSGDALARQNAYWYQQKPGQAPVLVMYRDTGRPSGIPERFSGSSSGTTVTLTISEVQAEDEADYYCQSADSSGAYVFGTGTKVTVL
In the case of B13, the Kd stood at 1.7 nM in assay [1], 0.381 nM in assay [2], 0.64 nM in assay [3] and 0.227 nM in assay [4].
